25 molecules from patent publication US20120094909A1 (Bristol-Myers Squibb, published 2012) can be followed below.

B1: 2381B02 (designed binder)
chain: MGVSDVPRDLEVVAATPTSLLISWEPFSRLPGGGEYYRITYGETGGNSPLQQFTVPGSKGTATISGLKPGVDYTITVYAVEYPYDYSGYYHRPISINYRTEIDKPSQHHHHHH
B2: 2381B04 (designed binder)
chain: B1 chain with D85E, Y86H
B3: 2381D04 (designed binder)
chain: B1 chain with Y82F, Y86H
B4: 2381B08 (designed binder)
chain: MGVSDVPRDLEVVAATPTSLLISWDAPADGGYGYYRITYGETGGNSPVQEFTVPSSKGTATISGLKPGVDYTITVYAVEYTFPGAGYYHRPISINYRTEIDKPSQHHHHHH
B5: 2382D03 (designed binder)
chain: B4 chain with G30E, G31A, S55V, Y80F, T81D
B6: 2381F11 (designed binder)
chain: B4 chain with S55V, G58S
B7: 2382C05 (designed binder)
chain: B4 chain with G31A, S55V, T81S
B8: 2382H03 (designed binder)
chain: B4 chain with D29E, G31A, S55V, T81P, F82Y, G84F
B9: 2381H09 (designed binder)
chain: B4 chain with D29G, S55V, Y80F, T81D, P83V
B10: 2382E03 (designed binder)
chain: B4 chain with D29G, G30D, S55V, Y80F, T81D
B11: 2382G04 (designed binder)
chain: B4 chain with D29G, Y80F, T81D
B12: 2382E05 (designed binder)
chain: B4 chain with D29E, S55V, Y80F, T81D
B13: 2381G09 (designed binder)
chain: B4 chain with D29G, G30D, S55V, Y80F
B14: 2382B10 (designed binder)
chain: MGVSDVPRDLEVVAATPTSLLISWDAPADAYGYYRITYGETGGNSPVQEFTVPSSKGTATISGLKPGVDYTITVYAVEYDFPGSGYYHRPISINYRTEIDKPSQHHHHHH
B15: 2382C09 (designed binder)
chain: B14 chain with D29E, A30G, S54V, Y79F
B16: 2382H09 (designed binder)
chain: B14 chain with D29A, Y79F
B17: 2382H10 (designed binder)
chain: B14 chain with D29G, A30G, S54V, Y79F
B18: 2382D09 (designed binder)
chain: B14 chain with D29E, A30G, S54V, Y79F, S84A
B19: 2451C06 (designed binder)
chain: MGVSDVPRDLEVVAATPTSLLISWDAPAGAASYGYYRITYGETGGNSPVQEFTVPVSKGTATISGLKPGVDYTITVYAVEFPFPGAGYYHRPISINYRTEIDKPSQHHHHHH
B20: 2451H07 (designed binder)
chain: MGITDVPRDLEVVAATPTSLLISWNPPDVNYGYYRITYGETGGNSPLQEFTVPVSKGTATISGLKPGVDYTITVYAVEYPYAHAGYYHRPISINYRTEIDKPSQHHHHHH
B21: 2382F05 (designed binder)
chain: MGVSDVPRDLEVVAATPTSLLISWDAPAEAGKHYGYYRITYGETGGNSPVQEFTVPVSKGTATISGLKPGVDYTITVYAVEFDFPGAGYYHRPISINYRTEIDKPSQHHHHHH
B22: 2382C09 (designed binder)
chain: B14 chain with D29E, A30G, S54V, Y79F
notes: Anti-PCSK9 Adnectin, His6-tagged
B23: 2382B09 (designed binder)
chain: B14 chain with S54V, Y79F, F81Y
notes: as for B22
B24: 2382D09 (designed binder)
chain: B14 chain with D29E, A30G, S54V, Y79F, S84A
notes: as for B22
B25: 2382B10 (designed binder)
chain: B14 chain
notes: as for B22

Numbering of substitutions follows the chain as printed.

One assay deals with T1, human PCSK9 (proprotein convertase subtilisin kexin type 9) (human, UniProt Q8NBP7 31-692).
T1 construct: immobilized directly (ProteOn), biotinylated (Octet) or in solution, according to the assay; also called hPCSK9; PCSK9-AF647 (labelled form)
Kind of assay: PCSK9:EGFA FRET, competitor EGFA peptide.
Consider B1, for which the EC50 stood at 2.5 nM.

With B2, a half-maximal response (EC50) required 2.4 nM.

B3 gave an EC50 of 2.9 nM.

B4 registered an EC50 of 2.6 nM.

Turning to B5, the midpoint of the response, the EC50, lay at 3.3 nM.

As for B6, the EC50 is 4 nM.

As to B7, the half-maximal effective concentration (EC50) was 4 nM.

Turning to B8, the EC50 stood at 3.4 nM.

Molecule B9 displayed a concentration for a half-maximal effect (EC50) of 3.4 nM.

B10: the EC50 worked out at 2.4 nM.

In turn, B11 yielded an EC50 of 2.9 nM.

Take B12: the EC50 came to 2.8 nM.

B13 returned an EC50 of 3.1 nM.

As to B14, a half-maximal response (EC50) required 3 nM.

Consider B15, for which the EC50 is 3.5 nM.

Consider B16, for which the EC50 was 0.9 nM.

B17 yielded an EC50 of 2.6 nM.

Consider B18, for which the EC50 was 2.6 nM.

In turn, B19 displayed an EC50 of 1.2 nM.

B20: the EC50 was 0.2 nM.

The molecule B21 returned an EC50 of 2.4 nM.

In another assay the target is T1, human PCSK9 (proprotein convertase …). Kind of assay: cell-based or functional assay.
Regarding B1, the “LDLR Depletion (% inhibition at 75 nM)” value stood at 125%.

Turning to B2, the “LDLR Depletion (% inhibition at 75 nM)” value stood at 122%.

On to B3, for which the “LDLR Depletion (% inhibition at 75 nM)” value came out at 119%.

Turning to B4, the “LDLR Depletion (% inhibition at 75 nM)” value stood at 125%.

For the molecule B5, the “LDLR Depletion (% inhibition at 75 nM)” value was found to be 80.4%.

As to B6, the “LDLR Depletion (% inhibition at 75 nM)” value worked out at 110%.

For the molecule B7, the “LDLR Depletion (% inhibition at 75 nM)” value was 105%.

With B8, the “LDLR Depletion (% inhibition at 75 nM)” value was 102%.

Regarding B9, the “LDLR Depletion (% inhibition at 75 nM)” value turned out to be 94.4%.

B10: the “LDLR Depletion (% inhibition at 75 nM)” value was 89.5%.

As to B11, the “LDLR Depletion (% inhibition at 75 nM)” value came out at 146%.

In the case of B12, the “LDLR Depletion (% inhibition at 75 nM)” value was 104%.

With B13, the “LDLR Depletion (% inhibition at 75 nM)” value stood at 133%.

As for B14, the “LDLR Depletion (% inhibition at 75 nM)” value worked out at 100%.

On to B15, for which the “LDLR Depletion (% inhibition at 75 nM)” value came to 122%.

For B16, the “LDLR Depletion (% inhibition at 75 nM)” value stood at 101%.

As to B17, the “LDLR Depletion (% inhibition at 75 nM)” value came out at 119%.

On to B18, for which the “LDLR Depletion (% inhibition at 75 nM)” value was found to be 109%.

As to B19, the “LDLR Depletion (% inhibition at 75 nM)” value was 89.4%.

For the molecule B20, the “LDLR Depletion (% inhibition at 75 nM)” value came out at 88.8%.

On to B21, for which the “LDLR Depletion (% inhibition at 75 nM)” value was determined as 72.2%.

A further assay addresses T2, human PCSK9 (proprotein convertase subtilisin kexin type 9) (human, UniProt Q8NBP7 31-692).
T2 construct: Directly immobilized (SPR ProteOn), biotinylated (BLI), or in solution, depending on the assay; also called hPCSK9
Briefly: BLI Octet Red, 37 C. How it is done: (§1) Tips were then immersed into a buffer-only well for observation of Adnectin dissociation. Experiments were performed in a temperature controlled environment at either 25 or 37° C., and the oscillation speed was set at 1500 rpm.
(§2) Binding interaction analysis was performed using proprietary software from Fortebio (Fortebio Data Analysis Software version 6.3.0.36). Global fits were performed for all samples, using a 1:1 binding model. The nature of these global fits constrained all values of concentration to a single pair of association and dissociation rates that were themselves constrained to each other. Affinities (KD), association and dissociation rates were averaged over the various loading levels used in the analysis.
Take B22: the Kd is 0.757 nM.

On to B23, for which the Kd worked out at 0.656 nM.

B24 had a Kd of 0.304 nM.

B25 registered a Kd of 2.35 nM.

The target of another assay is T2, human PCSK9 (proprotein convertase …). Briefly: BLI, biotinylated hPCSK9 on sensor tips. How it is done: as §1, §2
Molecule B22 showed a Kd of 0.757 nM, a koff of 0.000233 s⁻¹ and a kon of 349000 M⁻¹ s⁻¹.

Take B23: the Kd turned out to be 0.656 nM, the koff was found to be 0.000291 s⁻¹ and the kon is 451000 M⁻¹ s⁻¹.

Turning to B24, the Kd amounted to 0.304 nM, the koff is 0.000164 s⁻¹ and the kon is 533000 M⁻¹ s⁻¹.

For the molecule B25, the affinity, expressed as Kd, was 2.35 nM; the koff amounted to 0.000977 s⁻¹; the kon was 394000 M⁻¹ s⁻¹.

In the next assay the target is T1, human PCSK9 (proprotein convertase …). Briefly: BLI (Octet Red), 37 C. How it is done:
as §1, §2
B1 yielded a Kd of 3.29 nM.

The molecule B2 had a Kd of 0.527 nM.

B3 gave a Kd of 0.237 nM.

B4 yielded a Kd of 4.11 nM.

In turn, B5 displayed a Kd of 1.53 nM.

B6: the affinity, expressed as Kd, was 1.59 nM.

As to B7, binding was characterised by a dissociation constant (Kd) of 2.49 nM.

Regarding B8, the Kd came out at 0.677 nM.

As for B9, the Kd was determined as 3.23 nM.

In turn, B10 displayed a Kd of 2.94 nM.

Turning to B11, binding was put at a Kd of 1.11 nM.

B12 showed a Kd of 0.604 nM.

With B13, the Kd is 1.12 nM.

In turn, B14 registered a Kd of 2.35 nM.

B15 gave a Kd of 0.757 nM.

Regarding B16, the Kd was 1.86 nM.

With B17, the Kd was found to be 1.4 nM.

Consider B18, for which the affinity, expressed as Kd, was 0.304 nM.

For the molecule B19, the Kd is 1.27 nM.

Consider B20, for which the Kd is 2.08 nM.

B21 displayed a Kd of 4.54 nM.

The next assay deals with T2, human PCSK9 (proprotein convertase …). Kind of assay: FRET, competitor ATI001125. The source says: (§3) Table 11 summarizes the overall data from these three FRET assays.
Take B22: the IC50 is 0.6 nM.

B23 yielded an IC50 of 0.6 nM.

The molecule B24 had an IC50 of 0.4 nM.

Molecule B25 returned an IC50 of 0.5 nM.

For the next assay the target is unchanged. Briefly: FRET, competitor EGFA peptide.
Text: as §3
As for B22, the EC50 came out at 3.5 nM and the half-inhibitory concentration (IC50) is 3.5 nM.

For B23, the EC50 is 3.8 nM and the IC50 stood at 3.8 nM.

In turn, B24 returned an EC50 of 2.6 nM and an IC50 of 2.6 nM.

Regarding B25, the EC50 came to 3 nM and the IC50 worked out at 3 nM.

A further assay addresses cynomolgus monkey PCSK9 (cynomolgus monkey, UniProt A0A7N9D9N8 150-747). Briefly: FRET, competitor EGFA peptide.
Text: as §3
In the case of B22, the midpoint of the response, the EC50, lay at 23.9 nM.

Consider B23, for which the response was half-maximal at 37.2 nM (EC50).

Molecule B24 registered an EC50 of 13.9 nM.

Regarding B25, it took 18.1 nM to reach a half-maximal effect (EC50).

In another assay the target is T2, human PCSK9 (proprotein convertase …). Briefly: FRET direct binding, anti-his6 antibody.
Text: as §3
B22 returned an EC50 of 2.9 nM.

With B23, a half-maximal response (EC50) required 4 nM.

For the molecule B24, a half-maximal effect (EC50) was put at 3.7 nM.

B25: the EC50 is 3.1 nM.
